# Results reported in patent US20170173106A1, “Polypeptide Fragments of 168A-T2 and Compositions Comprising Them for Use in Treating Cancer” (GENE SIGNAL INTERNATIONAL SA, priority 2014, published 2017).
# Columns and labels:
# HUVECs [1] = test: Cellular proliferation test (MTT) on HUVECs; format: cell-based, human; details: 48 h
# Method: Evaluation of cellular proliferation was performed using 4,5-diMethylThiazol-2-yl)-2,5 diphenylTetrazolium bromide (MTT) test. After 18 hrs of culture, the media was changed by EBM2 supplemented with gentamycine and 5% SVF. Different concentrations of peptides were added under a volume of 10 μL/well. Cells were incubated for 48 hrs at 37° C. MTT was added (50 μL/well) to the cells for 3 hrs.
# Cells were grown for 48 h in EGM2-MV and proliferation was quantified by MTT assay.
# HUVECs [2] = test: Migration test following the wound test; format: cell-based, human; details: 66 μM (FIG. 3); 20 hrs
# Method: The migration of the cells was evaluated according to the wound test (Sato and Rifkin 1988 J Cell Biol 107, 1199-1205). HUVECs were cultivated to confluence in an EGM2-MV media. The wound width was measured using the software “Analysis” (Soft Imaging System Gmbh Digital, Olympus). Peptides to be tested were then added to the media.
# A wound has been performed with a chisel tip on the cell layer. The HUVECs migration following the addition of peptides was evaluated by the wound assay and the progress of the migration front of the HUVECs was analyzed after 20 hrs of culture. […] Pictures were shot with a microscope equipped with a camera (zoom ×40).
# CD9-CD9P-1 complex = biological target: T1, CD9-CD9P-1 complex (Homo sapiens, UniProt P21926+Q9P2B2); test: Immunoprecipitation in HUVECs: CD9P-1 with CD9; format: cell-based; details: 33 μM; 2 hrs
# T1 construct: endogenous in cells; host or cells: HUVEC
# T1 sequence (Q9P2B2 26-879): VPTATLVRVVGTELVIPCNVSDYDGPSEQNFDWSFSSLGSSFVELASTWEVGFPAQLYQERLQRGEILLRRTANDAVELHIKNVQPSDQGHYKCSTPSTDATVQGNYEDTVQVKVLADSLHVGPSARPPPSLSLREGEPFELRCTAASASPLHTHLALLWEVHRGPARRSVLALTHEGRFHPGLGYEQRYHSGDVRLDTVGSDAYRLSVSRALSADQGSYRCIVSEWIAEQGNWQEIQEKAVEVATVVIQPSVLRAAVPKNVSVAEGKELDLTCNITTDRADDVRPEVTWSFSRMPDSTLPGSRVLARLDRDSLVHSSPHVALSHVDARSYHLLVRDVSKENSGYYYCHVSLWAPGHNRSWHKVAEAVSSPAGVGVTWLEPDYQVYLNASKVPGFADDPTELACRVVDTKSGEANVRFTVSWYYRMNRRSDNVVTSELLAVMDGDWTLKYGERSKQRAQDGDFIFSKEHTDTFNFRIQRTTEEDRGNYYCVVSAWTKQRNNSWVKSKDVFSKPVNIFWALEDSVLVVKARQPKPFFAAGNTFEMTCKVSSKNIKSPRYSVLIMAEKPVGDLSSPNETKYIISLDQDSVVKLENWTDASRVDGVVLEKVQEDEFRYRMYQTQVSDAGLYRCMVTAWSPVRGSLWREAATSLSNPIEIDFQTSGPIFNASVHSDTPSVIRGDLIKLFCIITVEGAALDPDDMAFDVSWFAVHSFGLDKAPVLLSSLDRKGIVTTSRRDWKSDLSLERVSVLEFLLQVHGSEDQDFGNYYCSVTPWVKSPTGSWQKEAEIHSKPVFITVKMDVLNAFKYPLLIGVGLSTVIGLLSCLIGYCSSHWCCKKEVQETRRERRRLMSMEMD
# T1 sequence (P21926 2-228 limits assumed): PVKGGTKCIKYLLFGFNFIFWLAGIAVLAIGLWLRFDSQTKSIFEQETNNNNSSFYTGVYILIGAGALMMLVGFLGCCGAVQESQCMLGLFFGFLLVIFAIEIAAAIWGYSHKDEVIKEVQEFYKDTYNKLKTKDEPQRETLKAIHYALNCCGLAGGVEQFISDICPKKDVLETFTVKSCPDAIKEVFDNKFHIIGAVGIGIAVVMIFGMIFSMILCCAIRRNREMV
# Method: (§1) FIG. 13 is a photograph representing the dissociation of CD9-CD9P-1, CD9P-1-CD151 and CD9-CD151 complexes by P3 in HUVECs. HUVECs incubated for 2 h with 33 μM P3, PCT or solvent in EGM2-MV medium were lysed in brij 97 buffer, then CD81, CD9 or CD151 were immunoprecipitated with the corresponding antibody. Line A: Western blot results obtained with anti-CD9P-1 antibody from immunoprecipitated CD81, CD9 and CD151. Line B: Western blot results obtained with anti-CD9 antibody from immunoprecipitated CD81, CD9 and CD151. Line C: Western blot results obtained with anti-CD151 antibody from immunoprecipitated CD81, CD9 and CD151. PCT: control peptide. IP: immunoprecipitation.
# (§2) To study more precisely the effect of P3 on the associations of tetraspanins CD9, CD81, and CD151 between them and with CD9P-1, immunoprecipitation (IP) experiments were performed. In the control experiment (with the solvent), CD9P-1 co-precipitated with CD9 and CD81. A weak co-precipitation was observed between […] and CD151. The associations between tetraspanins and CD9P-1 are not modified under PCT condition. However, the interactions between CD9P-1 and CD9 and between CD9P-1 and CD151 are decreased while the HUVECs are incubated for 2 hrs with 33 μM of P3. The association between CD9P-1 and CD81 is not modified by P3 (FIG. 13A).
# CD9P-1-CD151 complex = biological target: T2, CD9P-1-CD151 complex (Homo sapiens, UniProt P48509+Q9P2B2); test: Immunoprecipitation in HUVECs: CD9P-1 with CD151; format: cell-based; details: 33 μM; 2 hrs
# T2 construct: endogenous in cells; host or cells: HUVEC
# T2 sequence (Q9P2B2 26-879): T1 sequence (Q9P2B2 26-879)
# T2 sequence (P48509 1-253): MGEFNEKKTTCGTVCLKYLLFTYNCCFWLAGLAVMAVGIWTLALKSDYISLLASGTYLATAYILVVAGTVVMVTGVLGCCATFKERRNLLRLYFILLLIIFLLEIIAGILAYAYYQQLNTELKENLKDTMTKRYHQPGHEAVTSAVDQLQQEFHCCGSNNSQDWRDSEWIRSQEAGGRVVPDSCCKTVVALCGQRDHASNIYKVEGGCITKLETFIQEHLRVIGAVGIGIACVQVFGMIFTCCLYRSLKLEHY
# Method: as §1, §2
# [3] = biological target: T3, CD9P-1 and CD81 association (Homo sapiens, UniProt P60033+Q9P2B2); test: Immunoprecipitation in HUVECs: CD9P-1 with CD81; format: cell-based; details: 33 μM; 2 hrs
# T3 construct: endogenous in cells; host or cells: HUVEC
# T3 sequence (Q9P2B2 26-879): T1 sequence (Q9P2B2 26-879)
# T3 sequence (P60033 1-236): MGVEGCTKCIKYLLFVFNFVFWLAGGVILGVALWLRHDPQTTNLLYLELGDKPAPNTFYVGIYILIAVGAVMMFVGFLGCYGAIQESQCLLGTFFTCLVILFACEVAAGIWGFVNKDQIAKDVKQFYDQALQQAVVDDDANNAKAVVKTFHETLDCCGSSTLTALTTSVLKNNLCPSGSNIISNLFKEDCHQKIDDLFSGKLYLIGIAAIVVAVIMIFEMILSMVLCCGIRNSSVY
# Method: as §1, §2
sequence,measurement,setting,value
NQKGCYDLVT (control peptide) [PCT],effect on HUVECs proliferation,HUVECs [1],No effect
same,wound closure / HUVECs migration,HUVECs [2],completely closed
same,interaction between CD9P-1 and CD9,CD9-CD9P-1 complex,not modified
same,interaction between CD9P-1 and CD151,CD9P-1-CD151 complex,not modified
same,association between CD9P-1 and CD81,[3],not modified
